Key:
[1] = tested on: C3H 10T1/2 cells; test: Plating efficiency in conjunction with transformation assay; assay type: cell-based; conditions: 200 cells/dish, 10 days; conjugates 1.0 μg/ml after MCA 1 μg/ml 24 hr
Description: The plating efficiency (PE) of the cells was also studied in conjunction with each of the transformation assays. To determine the PE of the cells in the different treatment groups, cells (200 cells/dish) were seeded into three 60-mm petri dishes per experiment group and treated in the identical manner as the transformation assay cells. The cells in these assays were terminated at 10 days, fixed with 100% methanol, and stained with giemsa; the colonies of 50 cells or more visible under a microscope were then counted. The plating efficiency is defined as the (number of colonies/number of cells seeded)*100.

[2] = tested on: Caco-2 monolayers; test: Transport of single- and multiple-conjugates across Caco-2 monolayers in transwells; assay type: cell-based, Human
Description: Confluent cell monolayers, 2 to 3 weeks old, and having a TEER value of approximately 500 Ωcm^2, were first incubated with Dulbecco's MEM containing 1% of FBS for 30 min at 37° C. Subsequently, the incubation medium was removed, and the ^125I-BBI (10 μg/ml) conjugates in 1.5 ml of the medium was added to the apical chamber of the transwells. To the basal chamber, 2.5 ml of the medium was added and the transwells were incubated at 37° C. At predetermined times, the entire basal chamber medium (2.5 ml) from each transwell was removed and counted for radioactivity using a gamma counter. In each experiment, typically seven samples were taken at 1, 2, 3, 4, 5, 6 and 24 hr post-incubation. After the 24 hr samples were taken, the cell monolayers were rinsed three times with ice-cold PBS, cut out of the inserts, and counted for accumulated radioactivity using a gamma counter.
The integrity of the ^125I-BBI conjugates transported across the monolayers was studied using Sephadex G50 gel-filtration chromatography. Briefly, after the basal medium was sampled at 24 hr, 1.0 ml of the medium was centrifuged at 2000 rpm and then eluted from a G50 column (10 ml) using PBS; 1 ml fractions were collected and the fraction-associated radioactivity was determined using a gamma counter. Intact conjugates eluted at column void volume and fragments smaller than 1 kDa were eluted at or above the column volume.
In the transwell experiments, the conjugates were incubated with the apical side of the cells for 1 hr at 37° C. The transwells were then rinsed three times with ice-cold PBS and then reincubated with serum free medium. The release of the conjugates into the apical and the basal medium was chased for 24 hr by counting the entire basal or the apical medium at different times. The total counts obtained at the end of the chase period (transwells+media counts were added, and the release of the conjugates (% of total) at different times was calculated. To ensure that the counts obtained in the transwells at 24 hr were due to the presence of the conjugates in the cells and not non-specific binding to the plastic, the transwells were exposed to trypsin for 10 min, rinsed three times with ice-cold pbs, and subsequently counted for accumulated radioactivity.
BBI was modified with 2 or 4 palmitic acids, and the transport was determined in transwells. The cumulative transport of BBI, BBI modified with 4 palmitic acids, and BBI modified with 2 palmitic acids in Caco-2 monolayers were determined as BBI (ng/monolayer) ± SEM, n=3. The order of the transport extent was BBIssPal(4)>BBI>BBIssPal(2). The results of the internalization of the conjugates into the same cells were determined as the ng of BBI internalized per monolayer. […] The basal media obtained at 24 hr from the transwells was analyzed using a G50 column. […] However, a small, but significant, amount of the basal media of BBIssPal(2) consisted of intact conjugate. This quantity consisted of between about 10 and about 20% of the total radioactivity present in the basal medium.

[3] = tested on: Human colon carcinoma cells (Caco-2); test: Uptake of 125I-BBI conjugates into Caco-2 cell monolayers
[4] = iv-biodistribution of 125I-BBI conjugates

B1: BBI: hydrophilic protein which has low uptake into cells and is not orally bioavailable; used for chemoprevention (protein, UniProt P01055 40-110, looked up)
Bowman-Birk type proteinase …: DDESSKPCCDQCACTKSNPPQCRCSDMRLNSCHSACKSCICALSYPAQCFCVDITDFCYEPCKPSEDDKEN
With B1 the “Plating Efficiency (%)” value [1] was 24 ± 2.0%, the “order of the transport extent (cumulative transport)” value ([2]; Caco-2 transwells, n=3) was “BBIssPal(4)>BBI>BBIssPal(2)” and the “transcytosis across the monolayers (G50 analysis of basal media)” value ([2]; basal media at 24 hr) was “neither BBI nor BBIssPal(4) was transcytosed”. For the same molecule, the “Uptake (ng BBI/mg of cell protein)/hr” value ([3]; 1% FBS, 10 μg/ml, 60 min, 37° C., ± SEM, three monolayers) was 2.2 ± 0.17 (ng BBI/mg of cell protein)/hr, the “Uptake (ng BBI/mg of cell protein)/hr” value ([3]; 10% FBS, 10 μg/ml, 60 min, 37° C., ± SEM, three monolayers) was 1.3 ± 0.02 (ng BBI/mg of cell protein)/hr and the “Uptake (ng BBI/mg of cell protein)/hr” value ([3]; BSA/FA: fatty acid-loaded BSA 0.1% (3-molar excess of palmitic acid)) was 3.9 ± 0.00 (ng BBI/mg of cell protein)/hr. For the same molecule, the “Uptake (ng BBI/mg of cell protein)/hr” value ([3]; BSA: fatty acid-free BSA 0.1%) was 4.8 ± 0.00 (ng BBI/mg of cell protein)/hr, the “Uptake (ng BBI/mg of cell protein)/hr” value ([3]; DTT-treated (50 mM, 5 min 60° C. and 25 min 37° C.), serum-free medium) was 5.2 ± 0.00 (ng BBI/mg of cell protein)/hr and the “Uptake (ng BBI/mg of cell protein)/hr” value ([3]; Untreated, serum-free medium) was 4.8 ± 0.00 (ng BBI/mg of cell protein)/hr. For the same molecule, the “effect of defatted-BSA on uptake” value ([3]; defatted-BSA 0.1% in medium) was “not affected”, the “effect of fatty acid-loaded BSA on uptake” value ([3]; fatty acid-loaded BSA 0.1%) was “again not affected” and the “Uptake (ng BBI/mg of cell protein)/hr” value ([3]; serum free (BSA-free) Dulbecco medium) was 4.8 ± 0.00 (ng BBI/mg of cell protein)/hr. The “Uptake (ng BBI/mg of cell protein)/hr” value ([3]; serum free, 10 μg/ml, 60 min, 37° C., ± SEM, three monolayers) was 3.9 ± 0.19 (ng BBI/mg of cell protein)/hr, the “effect of exposure to DTT on uptake” value ([3]; serum-free medium) was “did not cause a reduction in the uptake” and the “kidney accumulation” value ([4]; 3 mg/kg) was “rapidly accumulated in the kidneys”. For the same molecule, the “blood level and removal from circulation” value ([4]; 3 mg/kg, 0.5, 3 and 24 hr) was “rapidly excreted from the body without attaining high blood levels”.

— US7052704B2, “Methods and compositions for lipidization of hydrophilic molecules” (University of Southern California, priority 1995, dated 2006)
